Measurements published in US20190194322A1 (BIO TECHNE, published 2019).

T1: VSIG8 ectodomain coupled to pentamerizing rat COMP helix and alkaline phosphatase (AVEXIS prey) (rat, UniProt P0DPA2 22-263; P35444 28-72)
T1 construct: not shown: alkaline phosphatase enzyme
T1 sequence (looked up): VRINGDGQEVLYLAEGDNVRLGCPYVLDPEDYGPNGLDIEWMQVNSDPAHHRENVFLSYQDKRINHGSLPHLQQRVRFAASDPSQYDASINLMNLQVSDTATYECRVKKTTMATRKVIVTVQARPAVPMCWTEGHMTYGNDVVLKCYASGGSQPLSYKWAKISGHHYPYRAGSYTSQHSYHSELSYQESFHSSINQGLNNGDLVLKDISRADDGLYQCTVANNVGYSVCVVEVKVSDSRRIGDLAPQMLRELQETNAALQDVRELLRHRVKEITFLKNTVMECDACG

T2: VSIG3 ectodomain coupled to pentamerizing rat COMP helix and alkaline phosphatase (AVEXIS prey) (rat, UniProt Q5DX21 23-241; P35444 28-72)
T2 construct: used as conditioned medium; also called VSIG3 oligomer as prey; penta-VSIG3; not shown: alkaline phosphatase enzyme
T2 sequence (looked up): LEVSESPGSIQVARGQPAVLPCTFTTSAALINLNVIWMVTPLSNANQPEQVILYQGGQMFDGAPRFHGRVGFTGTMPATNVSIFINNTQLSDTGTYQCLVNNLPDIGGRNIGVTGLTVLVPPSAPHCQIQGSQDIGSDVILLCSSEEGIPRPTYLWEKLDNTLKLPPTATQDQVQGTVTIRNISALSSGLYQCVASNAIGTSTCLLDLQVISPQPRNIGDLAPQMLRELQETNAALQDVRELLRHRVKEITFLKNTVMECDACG

B1: mouse anti-human VSIG3 monoclonal antibody from clone #973428 (antibody, IgG1, V domains shown)
VH: EVQLVESGGDLVKPGGSLKLSCAASGFTFNSYGMSWVRQTPDKRLEWVAIISSGGSYTYYPDSVKGRFTISRDNAKNTLYLQMSSLKSEDTAMYYCARLSYYYGSSPYAMDYWGQGTSVTISS
VL: DIVLTQSPASLAVSLGQRATISCRASKSVSTSGYSYMHWYQQKPGQSPKLLIYLASNLESGVPARCSGSGSGTDFTLNIHPVEEEDAATYYCQHSRELPYTFGGGTKLEIKR
notes: also called fusion 9734 clone 28
B2: Recombinant human VSIG3 Fc Chimera (Fc fusion)
chain: LEVSESPGSIQVARGQTAVLPCTFTTSAALINLNVIWMVTPLSNANQPEQVILYQGGQMFDGAPRFHGRVGFTGTMPATNVSIFINNTQLSDTGTYQCLVNNLPDIGGRNIGVTGLTVLVPPSAPHCQIQGSQDIGSDVILLCSSEEGIPRPTYLWEKLDNTLKLPPTATQDQVQGTVTIRNISALSSGLYQCVASNAIGTSTCLLDLQVISPQPRNIGLIAGIEGRMDPKSCDKTHTCPPCPAPEAEGAPSVFLFPPKPKDTLMISRTPEVTCVVVDVSHEDPEVKFNWYVDGVEVHNAKTKPREEQYNSTYRVVSVLTVLHQDWLNGKEYKCKVSNKALPAPIEKTISKAKGQPREPQVYTLPPSRDELTKNQVSLTCLVKGFYPSDIAVEWESNGQPENNYKATPPVLDSDGSFFLYSKLTVDKSRWQQGNVFSCSVMHEALHNHYTQKSLSLSPGK
notes: also called rhVSIG3; rhVSIG-3
B3: VSIG8 Fc-fusion (AVEXIS bait) (Fc fusion, UniProt P0DPA2 22-263, looked up)
chain: VRINGDGQEVLYLAEGDNVRLGCPYVLDPEDYGPNGLDIEWMQVNSDPAHHRENVFLSYQDKRINHGSLPHLQQRVRFAASDPSQYDASINLMNLQVSDTATYECRVKKTTMATRKVIVTVQARPAVPMCWTEGHMTYGNDVVLKCYASGGSQPLSYKWAKISGHHYPYRAGSYTSQHSYHSELSYQESFHSSINQGLNNGDLVLKDISRADDGLYQCTVANNVGYSVCVVEVKVSDSRRIG
notes: extracellular domain; not shown: Fc
B4: mouse anti-human VSIG3 monoclonal antibody from clone #973401 (antibody, IgG1, V domains shown)
VH: QVQLQQSAAELARPGASVKMSCKASGYTFATYTIHWVKQRPGQGLEWIGYINPSSGYTEYNQKFKDKTTLTADKSSSTAYMQLSSLTSEDSAVYYCARREVYGSGSMDYWGQGTSVTVSS
VL: QIVLTQSPALMSASPGEKVTMTCSASSSVSFMYWYHQKPRSSPKPWIYLTSNLASGVPARFSGSGSGTSYSLTISSMEAEDAATYYCQQWSSNPLTFGAGTKLELKR
notes: also called fusion 9734 clone 1

Columns and labels:
[1] = target: B2; test: SPR (Biacore), VSIG3-Fc immobilised, antibody as analyte (FIG. 14)
Experimental: The affinity of these blocking antibodies to purified recombinant VSIG3 was measured by surface plasmon resonance (SPR) using a Biacore T200 in two assay orientations. […] Dilutions of antibody were then flowed over the surface and the double reference subtracted data fit to a 1:1 Langmuir binding model with Biacore T200 Evaluation Software version 3.1 (FIG. 14). In a separate assay, a fusion protein containing protein A/G/L (Novus Biologicals, Littleton, Colo.) was covalently immobilized to the surface of a CM5 chip by standard amine coupling chemistry. Antibody was captured, followed by dilutions of VSIG3 His-fusion. Double reference subtracted data were fit to a 1:1 Langmuir binding model as described above (FIG. 15).

[2] = target: T1, VSIG8 ectodomain coupled to …; test: AVEXIS, VSIG3 Fc-fusion bait, VSIG8-COMP-AP prey (FIG. 12B)
Description: (§1) FIG. 12B AVEXIS was used to screen interactions between VISTA and VSIG3, VSIG8, and PD1, and results were quantified by measuring absorbance at 650 nm using the alkaline phosphatase reagent BluePhos. […] FIG. 12C.
(§2) The ectodomains of VSIG3, VISTA, and other immunoregulatory receptors were cloned into a construct containing the rat cartilage oligomeric matrix protein (COMP), which forms a covalent, pentameric coiled-coil helix oligomer (Malashkevich et al. Science. 274 (1996) 761-5), followed by an alkaline phosphatase enzyme for detection. […] Conditioned media containing the oligomeric prey protein fused to the COMP helical oligomer and alkaline phosphatase was incubated and washed, and the interaction was quantitatively measured by detection of alkaline phosphatase activity using the BLUEPHOS reagent (KPL/Sera Care, Milford, Mass.).

[3] = target: T3, Recombinant human VISTA Fc Chimera (human (homo sapiens)); test: ELISA, rhVISTA coated at 2 µg/mL, biotin-labelled rhVSIG3 titrated, streptavidin-HRP (FIG. 1A)
T3 construct: also called rhVISTA; VISTA-Fc bait
Description: The non-specific binding is subtracted and in all cases was less than 5% of the total signal.

[4] = target: T4, PD1 ectodomain coupled to pentamerizing rat COMP helix and alkaline phosphatase (AVEXIS prey) (rat, UniProt Q15116 25-170; P35444 28-72); test: AVEXIS, VSIG3 Fc-fusion bait, PD1-COMP-AP prey (FIG. 12B)
T4 construct: not shown: alkaline phosphatase enzyme
Description: as §1, §2

[5] = target: T2, VSIG3 ectodomain coupled to …; test: AVEXIS, VSIG8 Fc-fusion bait, VSIG3-COMP-AP prey (FIG. 12B)
Description: as §1, §2

Binder: B1
binding result [1]: binds

Binder: B2
binding result [2]: no binding
EC50 [3]: ~0.25 mg/L
binding result [4]: no binding

Binder: B3
binding result [5]: no binding

Binder: B4
binding result [1]: binds
